Results from the supplement of paper PMC9112550, “Optimization of the antimicrobial peptide Bac7 by deep mutational scanning” (BMC Biology, 2022).

Tested on: Escherichia coli TOP10
Assay: shrunken log2 fold change of peptide-encoding DNA abundance (4.5 h post-induction vs induction); higher = less antimicrobial activity (less host growth inhibition)
Conditions: time post-induction: 4.5 h; library: site-saturation at positions 5, 18, 19, 20
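Also: peptides expressed intracellularly from a pBAD plasmid library in pooled LB shake-flask culture, induced with 0.3% L-arabinose, DNA abundance read by NGS, three biological replicates, DESeq2 with apeglm shrinkage.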

Row | Sequence | shrunken log2 fold change
1 | RRIRMRPPRLPRPRPRPRHMPRP | 0.418
2 | RRIRERPPRLPRPRPRPVWKPRP | 0.00515
3 | RRIRPRPPRLPRPRPRPNFPPRP | 0.0652
4 | RRIRQRPPRLPRPRPRPPEWPRP | -0.0462
5 | RRIRCRPPRLPRPRPRPTICPRP | -0.142
6 | RRIRFRPPRLPRPRPRPFNCPRP | -0.113
7 | RRIRQRPPRLPRPRPRPIDNPRP | -0.36
8 | RRIRRRPPRLPRPRPRPVPDPRP | 0.173
9 | RRIRLRPPRLPRPRPRPHIPPRP | -0.664
10 | RRIRSRPPRLPRPRPRPPMCPRP | 0.00128
11 | RRIRGRPPRLPRPRPRPACIPRP | 0.666
12 | RRIRHRPPRLPRPRPRPPVPPRP | 0.441
13 | RRIRARPPRLPRPRPRPTFDPRP | 0.399
14 | RRIRQRPPRLPRPRPRPPHFPRP | 0.00908
15 | RRIRMRPPRLPRPRPRPLKLPRP | 0.0525
16 | RRIRIRPPRLPRPRPRPIWGPRP | -0.0934
17 | RRIRKRPPRLPRPRPRPPMPPRP | 0.525
18 | RRIRCRPPRLPRPRPRPHFRPRP | -0.308
19 | RRIRMRPPRLPRPRPRPKNYPRP | 0.0737
20 | RRIRARPPRLPRPRPRPEHQPRP | 0.399
21 | RRIRTRPPRLPRPRPRPAAQPRP | 0.312
22 | RRIRNRPPRLPRPRPRPCASPRP | -0.106
23 | RRIRTRPPRLPRPRPRPVQYPRP | -0.246

Row | Sequence | shrunken log2 fold change
24 | RRIRLRPPRLPRPRPRPGCEPRP | 0.409
25 | RRIRERPPRLPRPRPRPYLCPRP | -0.554
26 | RRIRTRPPRLPRPRPRPPVKPRP | 0.385
27 | RRIRGRPPRLPRPRPRPHGTPRP | 0.331
28 | RRIRLRPPRLPRPRPRPVQGPRP | -0.01
29 | RRIRCRPPRLPRPRPRPYCAPRP | -0.642
30 | RRIRCRPPRLPRPRPRPQECPRP | -0.0139
31 | RRIRSRPPRLPRPRPRPEILPRP | -0.0652
32 | RRIRMRPPRLPRPRPRPPPTPRP | 1.97
33 | RRIRPRPPRLPRPRPRPNPKPRP | 0.0202
34 | RRIRVRPPRLPRPRPRPCPSPRP | -0.0233
35 | RRIRPRPPRLPRPRPRPNMIPRP | -0.531
36 | RRIRYRPPRLPRPRPRPSFSPRP | -0.626
37 | RRIRKRPPRLPRPRPRPAIKPRP | 0.191
38 | RRIRSRPPRLPRPRPRPAHTPRP | -0.379
39 | RRIRRRPPRLPRPRPRPAGYPRP | -0.269
40 | RRIRCRPPRLPRPRPRPCYPPRP | -0.743
41 | RRIRWRPPRLPRPRPRPDSQPRP | -0.0844
42 | RRIRLRPPRLPRPRPRPINAPRP | -0.177
43 | RRIRIRPPRLPRPRPRPHSMPRP | -0.382
44 | RRIRHRPPRLPRPRPRPDTSPRP | -0.0188
45 | RRIRQRPPRLPRPRPRPVYTPRP | -0.143
46 | RRIRDRPPRLPRPRPRPIKAPRP | -0.149

Row | Sequence | shrunken log2 fold change
47 | RRIRRRPPRLPRPRPRPVPIPRP | 0.137
48 | RRIRVRPPRLPRPRPRPCYDPRP | 0.0557
49 | RRIRNRPPRLPRPRPRPIVIPRP | -0.29
50 | RRIRDRPPRLPRPRPRPSMPPRP | -0.164
51 | RRIRPRPPRLPRPRPRPRDCPRP | 0.277
52 | RRIRRRPPRLPRPRPRPGVLPRP | 0.465
53 | RRIRQRPPRLPRPRPRPLLSPRP | 0.00947
54 | RRIRGRPPRLPRPRPRPCEVPRP | 0.0371
55 | RRIRFRPPRLPRPRPRPTAAPRP | 0.569
56 | RRIRLRPPRLPRPRPRPERTPRP | 0.098
57 | RRIRMRPPRLPRPRPRPFLWPRP | 0.0175
58 | RRIRFRPPRLPRPRPRPWKTPRP | -0.0119
59 | RRIRPRPPRLPRPRPRPMKRPRP | 0.153
60 | RRIRRRPPRLPRPRPRPTHPPRP | 0.543
61 | RRIRTRPPRLPRPRPRPCSYPRP | -0.129
62 | RRIRNRPPRLPRPRPRPHRHPRP | -0.222
63 | RRIRLRPPRLPRPRPRPDGCPRP | -0.0283
64 | RRIRLRPPRLPRPRPRPNRSPRP | -0.0205
65 | RRIRFRPPRLPRPRPRPRGWPRP | 0.9
66 | RRIRHRPPRLPRPRPRPGYSPRP | 0.0976
67 | RRIRNRPPRLPRPRPRPSVEPRP | -0.254
68 | RRIRQRPPRLPRPRPRPIGWPRP | 0.256
69 | RRIRQRPPRLPRPRPRPKVAPRP | -0.00277

Row | Sequence | shrunken log2 fold change
70 | RRIRKRPPRLPRPRPRPDTIPRP | 0.163
71 | RRIRNRPPRLPRPRPRPFKCPRP | -0.0598
72 | RRIRHRPPRLPRPRPRPRQMPRP | -0.0208
73 | RRIRCRPPRLPRPRPRPGWMPRP | 0.0485
74 | RRIRMRPPRLPRPRPRPKVWPRP | 1.04
75 | RRIRARPPRLPRPRPRPWKNPRP | -0.145
76 | RRIRPRPPRLPRPRPRPCLWPRP | 0.0902
77 | RRIRWRPPRLPRPRPRPENHPRP | -0.176
78 | RRIRARPPRLPRPRPRPDQIPRP | 0.327
79 | RRIRMRPPRLPRPRPRPCPSPRP | 0.0607
80 | RRIRMRPPRLPRPRPRPTKDPRP | 0.277
81 | RRIRGRPPRLPRPRPRPRAMPRP | 0.787
82 | RRIRFRPPRLPRPRPRPQESPRP | 0.124
83 | RRIRMRPPRLPRPRPRPDHRPRP | -0.279
84 | RRIRGRPPRLPRPRPRPNPDPRP | 0.221
85 | RRIRWRPPRLPRPRPRPAHHPRP | -0.0193
86 | RRIRYRPPRLPRPRPRPYCMPRP | -0.918
87 | RRIRNRPPRLPRPRPRPPGLPRP | 0.46
88 | RRIRDRPPRLPRPRPRPMERPRP | -0.0122
89 | RRIRMRPPRLPRPRPRPIMQPRP | 0.0343
90 | RRIRARPPRLPRPRPRPCLQPRP | -0.0914
91 | RRIRMRPPRLPRPRPRPKAGPRP | 1.3
